Measured values as given in article PMC9956121.
Changes are numbered by the printed parent chain. Names and notes keep the numbering of the source.

B1: human TAPBPR (TAP binding protein, related), luminal domain R105K; K211R; R270Q (protein)
chain: KPHPAEGQWRAVDVVLDCFLAKDGAHRGALASSEDRARASLVLKQVPVLDDGSLEDFTDFQGGTLAQDDPPIIFEASVDLVQIPQAEALLHADSSGKEVTCEISKYFLQMTETTVKTAAWFMANMQVSGGGPSISLVMKTPRVTKNEALWHPTLNLPLSPQGTVRTAVEFQVMTQTQSLSFLLGSSASLDCGFSMAPGLDLISVEWRLQHRGRGQLVYSWTAGQGQAVRKGATLEPAQLGMARDASLTLPGLTIQDEGTYICQITTSLYQAQQIIQLNIQASPKVRLSLANEALLPTLICDIAGYYPLDVVVTWTREELGGSPAQVSGASFSSLRQSVAGTYSISSSLTAEPGSAGATYTCQVTHISLEEPLGASTQVVPPERR
B2: human TAPBPR (TAP binding protein, related), luminal domain K211R; R270Q (protein)
chain: B1 chain with K105R
B3: human TAPBPR (TAP binding protein, related), luminal domain S104F; K211L; R270Q (protein)
chain: B1 chain with S104F, K105R, R211L

Legend:
[1] = target: acetyl-6-formylpterin-loaded MR1 C262S/hβ2m, P61769; assay: SPR; settings: chain shown with the change;; parent: est. 2.0; read off a plot
[2] = target: peptide-loaded HLA-A*02:01/hβ2m (photolabile peptide KILGFVFJV); assay: SPR; settings: chain shown with the change;; parent: est. 0.98; read off a plot

Binder	Kd (Log10 KD (µM)) [1]	Kd (Log10 KD (µM)) [2]
B1	1.8	–
B2	–	0.1
B3	–	0.09
